Patent US20160208004A1
Values joined by “and” are separate entries in the source; they are usually repeats but may differ in a detail not shown here. Equal values may be shown once. Blank lines part the entries; values can stand above or below the substance they belong to.

What was measured:
Assay in all cases: cell-based or functional assay
human IL-17RB (human) = human IL-17RB (human) (UniProt Q9NRM6)
human IL-17RA (human) = human IL-17RA (human) (UniProt Q96F46)
human IL-25 (human) = human IL-25 (human) (UniProt Q9H293)
human IL-25 (human), sequence (Q9H293 33-177 limits assumed): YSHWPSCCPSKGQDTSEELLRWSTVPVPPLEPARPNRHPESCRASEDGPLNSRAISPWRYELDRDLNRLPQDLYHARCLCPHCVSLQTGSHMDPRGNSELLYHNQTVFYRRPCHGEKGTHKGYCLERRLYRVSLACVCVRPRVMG

human IL-17RB (human), sequence (Q9NRM6 18-502): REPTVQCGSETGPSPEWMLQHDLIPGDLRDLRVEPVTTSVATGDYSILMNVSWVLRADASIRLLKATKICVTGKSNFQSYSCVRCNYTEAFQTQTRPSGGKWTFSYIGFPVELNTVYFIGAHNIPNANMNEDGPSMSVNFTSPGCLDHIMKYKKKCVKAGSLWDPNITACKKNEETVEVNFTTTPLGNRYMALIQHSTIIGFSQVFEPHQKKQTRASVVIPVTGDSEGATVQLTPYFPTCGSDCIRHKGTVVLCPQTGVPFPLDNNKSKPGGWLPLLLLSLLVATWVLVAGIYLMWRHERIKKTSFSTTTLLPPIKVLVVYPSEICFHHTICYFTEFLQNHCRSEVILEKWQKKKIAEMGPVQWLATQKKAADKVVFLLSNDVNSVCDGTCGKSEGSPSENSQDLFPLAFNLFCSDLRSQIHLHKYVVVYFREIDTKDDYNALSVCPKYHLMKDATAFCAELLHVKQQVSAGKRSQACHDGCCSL

- % Inhibition of IL-5 production, TSLP treated human PBMC + IL-2 + IL-25; inhibitor 10 micrograms/mL (human IL-17RB (human)): 13%
Substance: MAB1207: anti-HuIL-17RB MuIgG2b (R&D Systems) (antibody)

- % Inhibition of IL-5 production, TSLP treated human PBMC + IL-2 + IL-25; inhibitor 10 micrograms/mL (human IL-17RA (human)): 24% and 33%
Substance: MAB1771: anti-HuIL-17RA MuIgG2b (R&D Systems) (antibody)

- % Inhibition of IL-5 production, TSLP treated human PBMC + IL-2 + IL-25; inhibitor 10 micrograms/mL (human IL-25 (human)): 67%
Substance: HuIL-17RB: HIS (extracellular region of human IL-17RB fused to poly HIS) (from UniProt Q9NRM6 18-292) (receptor)
